[ ]: non-standard residue; d: D form. 2Nal = N[C@@H](Cc1ccc2ccccc2c1)C(=O)O
Molecular target: Recombinant PLA2GIB enzyme (sPLA2GIB produced in E. coli) (UniProt P04054 23-148)
Assay: cell-based or functional assay

Recombinant PLA2GIB enzyme (sPLA2GIB produced in E. coli), sequence (P04054 23-148 limits assumed): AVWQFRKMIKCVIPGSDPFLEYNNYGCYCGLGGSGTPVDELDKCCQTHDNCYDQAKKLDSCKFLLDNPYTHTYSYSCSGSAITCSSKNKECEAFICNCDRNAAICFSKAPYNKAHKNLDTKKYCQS

## cyclo([2Nal]LS[2Nal]R) [Peptide I (cyclic(2-NaphthylAla-Leu-Ser-2-NaphthylAla-Arg))]
  IC50 of inhibition of PLA2GIB activity in the bioassay (inhibition of IL-7-induced nuclear translocation of phospho STAT5 in CD4 T cells, STED microscopy): ~4.9 µM

From patent US20180296632A1 (DIACCURATE, published 2018)
